Laboratory results reported in patent US20150315606.

T1: synthetic fluorogenic EPF1 peptide
T1 chain: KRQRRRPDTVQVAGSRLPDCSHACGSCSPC

T2: synthetic EPF2 peptide (synEPF2), 30 AA partial EPF2 peptide spanning the predicted cleavage site, Dabcyl-SKNGGVEMEMYPTGSSLPDCSYACGACSPC-Glu(EDANS)
T2 chain: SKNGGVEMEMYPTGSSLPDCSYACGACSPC

B1: SDD1 protease, STREPII tagged, synthesized in the SP6-TNT wheat germ system (protein)
chain: MEPKPFFLCIIFLLFCSSSSEILQKQTYIVQLHPNSETAKTFASKFDWHLSFLQEAVLGVEEEEEEPSSRLLYSYGSAIEGFAAQLTESEAEILRYSPEVVAVRPDHVLQVQTTYSYKFLGLDGFGNSGVWSKSRFGQGTIIGVLDTGVWPESPSFDDTGMPSIPRKWKGICQEGESFSSSSCNRKLIGARFFIRGHRVANSPEESPNMPREYISARDSTGHGTHTASTVGGSSVSMANVLGNGAGVARGMAPGAHIAVYKVCWFNGCYSSDILAAIDVAIQDKVDVLSLSLGGFPIPLYDDTIAIGTFRAMERGISVICAAGNNGPIESSVANTAPWVSTIGAGTLDRRFPAVVRLANGKLLYGESLYPGKGIKNAGREVEVIYVTGGDKGSEFCLRGSLPREEIRGKMVICDRGVNGRSEKGEAVKEAGGVAMILANTEINQEEDSIDVHLLPATLIGYTESVLLKAYVNATVKPKARIIFGGTVIGRSRAPEVAQFSARGPSLANPSILKPDMIAPGVNIIAAWPQNLGPTGLPYDSRRVNFTVMSGTSMSCPHVSGITALIRSAYPNWSPAAIKSALMTTADLYDRQGKAIKDGNKPAGVFAIGAGHVNPQKAINPGLVYNIQPVDYITYLCTLGFTRSDILAITHKNVSCNGILRKNPGFSLNYPSIAVIFKRGKTTEMITRRVTNVGSPNSIYSVNVKAPEGIKVIVNPKRLVFKHVDQTLSYRVWFVLKKKNRGGKVASFAQGQLTWVNSHNLMQRVRSPISVTLKTN
B2: CO2-regulated secreted subtilisin-like serine protease (CRSP), STREP II-tagged, synthesized in vitro in the wheat germ system (protein)
chain: MKGITFFTPFLSFLYLLCILFMTETEAGSRNGDGVYIVYMGSASSAANANRAQILINTMFKRRANDLLHTYKHGFSGFAARLTAEEAKVIAKKPGVVSVFPDPHFQLHTTHSWDFLKYQTSVKVDSGPPSSASDGSYDSIVGILDTGIWPESESFNDKDMGPIPSRWKGTCMEAKDFKSSNCNRKIIGARYYKNPDDDSEYYTTRDVIGHGSHVSSTIAGSAVENASYYGVASGTAKGGSQNARIAMYKVCNPGGCTGSSILAAFDDAIADGVDVLSLSLGAPAYARIDLNTDPIAIGAFHAVEQGILVICSAGNDGPDGGTVTNTAPWIMTVAANTIDRDFESDVVLGGNKVIKGEGIHFSNVSKSPVYPLIHGKSAKSADASEGSARACDSDSLDQEKVKGKIVLCENVGGSYYASSARDEVKSKGGTGCVFVDDRTRAVASAYGSFPTTVIDSKEAAEIFSYLNSTKDPVATILPTATVEKFTPAPAVAYFSSRGPSSLTRSILKPDITAPGVSILAAWTGNDSSISLEGKPASQYNVISGTSMAAPHVSAVASLIKSQHPTWGPSAIRSAIMTTATQTNNDKGLITTETGATATPYDSGAGELSSTASMQPGLVYETTETDYLNFLCYYGYNVTTIKAMSKAFPENFTCPADSNLDLISTINYPSIGISGFKGNGSKTVTRTVTNVGEDGEAVYTVSVETPPGFNIQVTPEKLQFTKDGEKLTYQVIVSATASLKQDVFGALTWSNAKYKVRSPIVISSESSRTN

Key:
[1] = molecular target: T1, synthetic fluorogenic EPF1 peptide
[2] = molecular target: T2, synthetic EPF2 peptide (synEPF2), 30 AA …

Protein | synthetic peptide and protease fluorogenic cleavage assay [1] | MALDI-TOF-MS hits of cleavage fragment SKNGGVEMEMYPTGS (SEQ ID NO:131) [2] | MALDI-TOF-MS hits of cleavage fragment SKNGGVEMEMYPTGSSL (SEQ ID NO:130) [2] | MALDI-TOF-MS hits of cleavage fragment SKNGGVEMEMYPTGSSLPD (SEQ ID NO:129) [2] | MALDI-TOF-MS hits of the uncleaved 30 aa peptide [2] | synthetic peptide and protease fluorogenic cleavage assay [2]
B1 | EPF1 cleavage by both SDD1 and CRSP shows low affinity | – | – | – | – | –
B2 | EPF1 cleavage by both SDD1 and CRSP shows low affinity | (5 hits) | (3 hits) | (14 hits) | The 30 aa, full length, uncleaved peptide was also seen (14 hits) | EPF2 cleavage sample traces indicate that EPF2 cleavage by CRSP could be specific (compared with SDD1)
